Source: PMC2943896, “Additional Serine/Threonine Phosphorylation Reduces Binding Affinity but Preserves Interface Topography of Substrate Proteins to the c-Cbl TKB Domain” (PLoS ONE, 2010)
Values belong to the binder of their own block, whether it stands above or below them. Where no end group is shown, it is not given here. [ ]: non-standard residue; d: D form. pY = N[C@@H](Cc1ccc(OP(=O)(O)O)cc1)C(=O)O; pT = C[C@@H](OP(=O)(O)O)[C@H](N)C(=O)O

Target: T1, c-Cbl TKB domain (UniProt P22681 25-351)
T1 construct: these are not the construct limits; source: cloning, expression and purification as described previously [14]; purified
T1 sequence: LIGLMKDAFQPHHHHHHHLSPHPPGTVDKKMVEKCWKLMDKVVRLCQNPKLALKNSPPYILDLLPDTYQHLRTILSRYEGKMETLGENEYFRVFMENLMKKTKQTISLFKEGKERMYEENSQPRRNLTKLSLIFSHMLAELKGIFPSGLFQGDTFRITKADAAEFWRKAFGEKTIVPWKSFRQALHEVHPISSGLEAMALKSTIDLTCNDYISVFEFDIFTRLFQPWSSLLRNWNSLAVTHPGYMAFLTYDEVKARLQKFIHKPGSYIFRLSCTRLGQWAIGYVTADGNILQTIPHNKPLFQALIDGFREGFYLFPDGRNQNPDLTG
Conditions: both partners purified

Kd: 3.83 µM
B1: pTyr55/pThr56 Spry2 peptide (peptide)
peptide: IRNTNE[pY][pT]EGPT
notes: Sprouty2 (Spry2), human; also called ppSpry2; pYpT-Spry2; source: synthetic peptide, bought: GL Biochem

Kd: 0.31 µM
Binder: IRNTNE[pY]TEGPT (also called pSpry2; pSprouty2) [Tyr55 phosphorylated Spry2 peptide]
